Experimental data: the supplement of paper PMC11246515
± gives the standard deviation of the averaged measurements.

Assay: total protein half-life in vivo (active degradation + dilution); higher = more stable protein
[1] = wild type E. coli NCM3722, growth: C-lim chemostat, doubling time 3 h
[2] = wild type E. coli NCM3722, growth: C-lim chemostat, doubling time 6 h
[3] = wild type E. coli NCM3722, growth: C-lim chemostat, doubling time 12 h
[4] = E. coli NCM3722 delta-clpP, growth: N-lim chemostat, doubling time 6 h
[5] = wild type E. coli NCM3722, growth: N-lim chemostat, doubling time 12 h
[6] = wild type E. coli NCM3722, growth: P-lim chemostat, doubling time 12 h
[7] = E. coli NCM3722 delta-clpP delta-lon delta-hslV, growth: N-lim chemostat, doubling time 6 h
[8] = E. coli NCM3722 delta-hslV, growth: N-lim chemostat, doubling time 6 h
[9] = E. coli NCM3722 delta-smpB, growth: N-lim chemostat, doubling time 6 h
[10] = wild type E. coli NCM3722, growth: N-lim chemostat, doubling time 6 h
[11] = wild type E. coli NCM3722, growth: P-lim chemostat, doubling time 6 h
[12] = E. coli NCM3722 delta-lon, growth: N-lim chemostat, doubling time 6 h

| Sequence | total protein half-life in vivo [1] | total protein half-life in vivo [2] | total protein half-life in vivo [3] | total protein half-life in vivo [4] | total protein half-life in vivo [5] | total protein half-life in vivo [6] | total protein half-life in vivo [7] | total protein half-life in vivo [8] | total protein half-life in vivo [9] | total protein half-life in vivo [10] | total protein half-life in vivo [11] | total protein half-life in vivo [12] |
| --- | --- | --- | --- | --- | --- | --- | --- | --- | --- | --- | --- | --- |
| MKNQAHPIIVVKRRKAKSHGAAHGSWKIAYADFMTAMMAFFLVMWLISISSPKELIQIAEYFRTPLATAVTGGDRISNSESPIPGGGDDYTQSQGEVNKQPNIEELKKRMEQSRLRKLRGDLDQLIESDPKLRALRPHLKIDLVQEGLRIQIIDSQNRPMFRTGSADVEPYMRDILRAIAPVLNGIPNRISLSGHTDDFPYASGEKGYSNWELSADRANASRRELMVGGLDSGKVLRVVGMAATMRLSDRGPDDAVNRRISLLVLNKQAEQAILHENAESQNEPVSALEKPEVAPQVSVPTMPSAEPR [P0AF06] | 0.683 ± 0.017 h | 1.21 h | 1.33 h | – | – | – | – | – | – | – | – | – |
| MANLLNKFIMTRILAAITLLLSIVLTILVTIFCSVPIIIAGIVKLLLPVPVIWRKVSRFCDFMMYCWCEGLAVLLHLNPHLQWEVHGLEGLSKKNWYLLICNHRSWADIVVLCVLFRKHIPMNKYFLKQQLAWVPFLGLACWSLDMPFMKRYSRAYLLRHPERRGKDVETTRRSCEKFRLHPTTIVNFVEGSRFTQEKHQQTHSTFQNLLPPKAAGIAMALNVLGKQFDKLLNVTLCYPDNNRQPFFDMLSGKLTRIVVHVDLQPIADELHGDYINDKSFKRHFQQWLNSLWQEKDRLLTSLMSSQRQNK | – | 6.03 h | – | 6.87 h | 10.5 h | 13.6 h | – | – | – | – | – | – |
| MPKLILASTSPWRRALLEKLQISFECAAPEVDETPRSDESPRQLVLRLAQEKAQSLASRYPDHLIIGSDQVCVLDGEITGKPLTEENARLQLRKASGNIVTFYTGLALFNSANGHLQTEVEPFDVHFRHLSEAEIDNYVRKEHPLHCAGSFKSEGFGITLFERLEGRDPNTLVGLPLIALCQMLRREGKNPLMG [P0A729] | 3.14 ± 0.5 h | 5.174 ± 0.02 h | 8.34 ± 0.7 h | – | 6.24 ± 0.41 h | 12.1 ± 0.56 h | 4.57 ± 0.6 h | 4.118 ± 0.0072 h | 3.68 ± 0.16 h | 3.77 ± 0.35 h | 5.45 ± 0.28 h | – |
| MPLRRFSPGLKAQFAFGMVFLFVQPDASAADISAQQIGGVIIPQAFSQALQDGMSVPLYIHLAGSQGRQDDQRIGSAFIWLDDGQLRIRKIQLEESEDNASVSEQTRQQLMALANAPFNEALTIPLTDNAQLDLSLRQLLLQLVVKREALGTVLRSRSEDIGQSSVNTLSSNLSYNLGVYNNQLRNGGSNTSSYLSLNNVTALREHHVVLDGSLYGIGSGQQDSELYKAMYERDFAGHRFAGGMLDTWNLQSLGPMTAISAGKIYGLSWGNQASSTIFDSSQSATPVIAFLPAAGEVHLTRDGRLLSVQNFTMGNHEVDTRGLPYGIYDVEVEVIVNGRVISKRTQRVNKLFSRGRGVGAPLAWQVWGGSFHMDRWSENGKKTRPAKESWLAGASTSGSLSTLSWAATGYGYDNQAVGETRLTLPLGGAINVNLQNMLASDSSWSSIGSISATLPGGFSSLWVNQEKTRIGNQLRRSDADNRAIGGTLNLNSLWSKLGTFSISYNDDRRYNSHYYTADYYQNVYSGTFGSLGLRAGIQRYNNGDSNANTGKYIALDLSLPLGNWFSAGMTHQNGYTMANLSARKQFDEGTIRTVGANLSRAISGDTGDDKTLSGGAYAQFDARYASGTLNVNSAADGYVNTNLTANGSVGWQGKNIAASGRTDGNAGVIFNTGLEDDGQISAKINGRIFPLNGKRNYLPLSPYGRYEVELQNSKNSLDSYDIVSGRKSRLTLYPGNVAVIEPEVKQMVTVSGRIRAEDGTLLANARINNHIGRTRTDENGEFVMDVDKKYPTIDFRYSGNKTCEVALELNQARGAVWVGDVVCSGLSSWAAVTQTGEENES | 2.91 h | – | – | – | – | – | – | – | – | – | – | – |
| MDWLLDVFATWLYGLKVIAITLAVIMFISGLDDFFIDVVYWVRRIKRKLSVYRRYPRMSYRELYKPDEKPLAIMVPAWNETGVIGNMAELAATTLDYENYHIFVGTYPNDPDTQRDVDEVCARFPNVHKVVCARPGPTSKADCLNNVLDAITQFERSANFAFAGFILHDAEDVISPMELRLFNYLVERKDLIQIPVYPFEREWTHFTSMTYIDEFSELHGKDVPVREALAGQVPSAGVGTCFSRRAVTALLADGDGIAFDVQSLTEDYDIGFRLKEKGMTEIFVRFPVVDEAKEREQRKFLQHARTSNMICVREYFPDTFSTAVRQKSRWIIGIVFQGFKTHKWTSSLTLNYFLWRDRKGAISNFVSFLAMLVMIQLLLLLAYESLWPDAWHFLSIFSGSAWLMTLLWLNFGLMVNRIVQRVIFVTGYYGLTQGLLSVLRLFWGNLINFMANWRALKQVLQHGDPRRVAWDKTTHDFPSVTGDTRSLRPLGQILLENQVITEEQLDTALRNRVEGLRLGGSMLMQGLISAEQLAQALAEQNGVAWESIDAWQIPSSLIAEMPASVALHYAVLPLRLENDELIVGSEDGIDPVSLAALTRKVGRKVRYVIVLRGQIVTGLRHWYARRRGHDPRAMLYNAVQHQWLTEQQAGEIWRQYVPHQFLFAEILTTLGHINRSAINVLLLRHERSSLPLGKFLVTEGVISQETLDRVLTIQRELQVSMQSLLLKAGLNTEQVAQLESENEGE [P0AFA5] | – | – | – | – | 9.6 ± 6.5 h | – | 4.66 ± 1.7 h | – | – | – | – | – |
| MQLNKVLKGLMIALPVMAIAACSSNKNASNDGSEGMLGAGTGMDANGGNGNMSSEEQARLQMQQLQQNNIVYFDLDKYDIRSDFAQMLDAHANFLRSNPSYKVTVEGHADERGTPEYNISLGERRANAVKMYLQGKGVSADQISIVSYGKEKPAVLGHDEAAYSKNRRAVLVY [P0A912] | 3.09 ± 0.057 h | 5.6 ± 0.32 h | 10.7 ± 1.1 h | 6.28 ± 0.35 h | 12.6 ± 0.94 h | 11.3 ± 1.8 h | 6.43 ± 0.059 h | 6.46 ± 0.39 h | 5.44 ± 0.29 h | 6.17 ± 0.19 h | 5.9 ± 0.72 h | 6.35 ± 0.55 h |
| MGSGWHEWPLMIFTVFGQCVAGGFIVLALALLKGDLRAEAQQRVIACMFGLWVLMGIGFIASMLHLGSPMRAFNSLNRVGASALSNEIASGSIFFAVGGIGWLLAMLKKLSPALRTLWLIVTMVLGVIFVWMMVRVYNSIDTVPTWYSIWTPMGFFLTMFMGGPLLGYLLLSLAGVDGWAMRLLPAISVLALVVSGVVSVMQGAELATIHSSVQQAAALVPDYGALMSWRIVLLAVALCLWIAPQLKGYQPAVPLLSVSFILLLAGELIGRGVFYGLHMTVGMAVAS | – | 5.22 h | – | – | – | 10.9 h | – | – | – | – | – | – |
| MQALLLEQQDGKTLASVQTLDESRLPEGDVTVDVHWSSLNYKDALAITGKGKIIRNFPMIPGIDFAGTVRTSEDPRFHAGQEVLLTGWGVGENHWGGLAEQARVKGDWLVAMPQGLDARKAMIIGTAGFTAMLCVMALEDAGVRPQDGEIVVTGASGGVGSTAVALLHKLGYQVVAVSGRESTHEYLKSLGASRVLPRDEFAESRPLEKQVWAGAIDTVGDKVLAKVLAQMNYGGCVAACGLAGGFTLPTTVMPFILRNVRLQGVDSVMTPPERRAQAWQRLVADLPESFYTQAAKEISLSEAPNFAEAIINNQIQGRTLVKVN | 3.03 ± 0.091 h | – | 10.63 ± 0.024 h | 5.271 ± 0.034 h | 9.06 ± 0.27 h | 13 ± 0.96 h | 5.18 ± 0.35 h | 5.7 ± 1.2 h | 4.6639 ± 0.0045 h | 5.25 ± 0.21 h | 6.5 ± 0.39 h | 5.67 ± 0.37 h |
| MQTTQQNAPLKRTMKTRHLIMLSLGGVIGTGLFFNTGYIISTTGAAGTLLAYLIGALVVWLVMQCLGELSVAMPETGAFHVYAARYLGPATGYTVAWLYWLTWTVALGSSFTAAGFCMQYWFPQVPVWVWCVVFCAIIFGLNVISTRFFAEGEFWFSLVKVVTIIAFIILGGAAIFGFIPMQDGSPAPGLSNITAEGWFPHGGLPILMTMVAVNFAFSGTELIGIAAGETENPRKVIPVAIRTTIARLIIFFIGTVFVLAALIPMQQVGVEKSPFVLVFEKVGIPYAADIFNFVILTAILSAANSGLYASGRMLWSLSNERTLPACFARVTKNGVPLTALSVSMLGGVLALFSSVVAPDTVFVALSAISGFAVVAVWLSICASHFVFRRRHLQQGKALSELHYRAPWYPLVPVLGFVLCLVACVGLAFDPAQRIALWCGLPFVALCYGAYFLTQPRNAKQEPEHVAE | 3.05 ± 0.71 h | 4.13 ± 0.25 h | 7.02 ± 0.5 h | 1.78 h | – | 7.23 h | 3.09 ± 0.25 h | 3.13 h | 2.51 ± 0.28 h | 3.79 h | 3.63 ± 0.43 h | – |
